Here are results for four molecules from US20220348617A1 (published 2022).

The target of experiment [1] is hDLL4 site2. Nature of the experiment: SPR; N-EGF3.
The target in experiment [2] is DLL4.v3. Nature of the experiment: SPR; N-EGF3. (In general: In SPR one partner is held on a chip, and binding of the other changes the refractive index at the surface.)
In experiment [3] the target is T1, Notch1 EGF domains 6-13 (human, UniProt P46531 218-526).
T1 chain: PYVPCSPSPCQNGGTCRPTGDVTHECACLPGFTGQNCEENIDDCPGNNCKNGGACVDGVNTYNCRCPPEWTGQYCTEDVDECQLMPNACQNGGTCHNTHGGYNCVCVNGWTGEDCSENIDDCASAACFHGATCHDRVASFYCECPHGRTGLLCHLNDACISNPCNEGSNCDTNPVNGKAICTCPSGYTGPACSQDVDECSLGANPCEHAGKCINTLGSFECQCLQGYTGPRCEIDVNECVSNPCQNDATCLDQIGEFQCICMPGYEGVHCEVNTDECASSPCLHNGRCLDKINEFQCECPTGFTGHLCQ
Nature of the experiment: SPR; N-EGF3.

Experiment [4] has as its target T2, Notch 3 EGF domains 5-12 (human, UniProt Q9UM47 197-505).
T2 chain: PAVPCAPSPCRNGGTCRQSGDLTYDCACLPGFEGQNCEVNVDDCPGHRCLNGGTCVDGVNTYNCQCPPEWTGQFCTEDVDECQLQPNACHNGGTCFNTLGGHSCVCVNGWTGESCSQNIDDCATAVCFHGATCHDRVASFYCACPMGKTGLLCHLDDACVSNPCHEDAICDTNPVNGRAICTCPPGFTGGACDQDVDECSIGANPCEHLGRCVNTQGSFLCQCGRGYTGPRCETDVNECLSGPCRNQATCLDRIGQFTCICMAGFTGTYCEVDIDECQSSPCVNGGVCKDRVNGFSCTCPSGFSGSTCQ
Nature of the experiment: SPR; N-EGF3.

The target of experiment [5] is T3, Notch2 EGF domains 6-13 (human, UniProt Q04721 221-530).
T3 chain: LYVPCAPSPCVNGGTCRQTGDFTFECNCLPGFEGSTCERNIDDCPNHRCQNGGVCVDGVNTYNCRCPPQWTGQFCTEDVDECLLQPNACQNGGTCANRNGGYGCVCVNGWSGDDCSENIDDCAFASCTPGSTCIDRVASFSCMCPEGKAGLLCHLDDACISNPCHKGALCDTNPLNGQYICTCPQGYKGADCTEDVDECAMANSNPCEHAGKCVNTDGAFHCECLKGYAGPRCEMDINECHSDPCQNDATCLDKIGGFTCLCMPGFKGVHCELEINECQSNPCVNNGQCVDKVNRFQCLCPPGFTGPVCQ
Put plainly: SPR; N-EGF3.

In experiment [6] the target is T1, Notch1 EGF domains 6-13. Put plainly: SPR.
The target in experiment [7] is T2, Notch 3 EGF domains 5-12. Nature of the experiment: SPR.
The target of experiment [8] is T3, Notch2 EGF domains 6-13. Put plainly: SPR.

B1: hNotch 3 (EGF6-13) (receptor)
chain: PAVPCAPSPCRNGGTCRQSGDLTYDCACLPGFEGQNCEVNVDDCPGHRCLNGGTCVDGVNTYNCQCPPEWTGQFCTEDVDECQLQPNACHNGGTCFNTLGGHSCVCVNGWTGESCSQNIDDCATAVCFHGATCHDRVASFYCACPMGKTGLLCHLDDACVSNPCHEDAICDTNPVNGRAICTCPPGFTGGACDQDVDECSIGANPCEHLGRCVNTQGSFLCQCGRGYTGPRCETDVNECLSGPCRNQATCLDRIGQFTCICMAGFTGTYCEVDIDECQSSPCVNGGVCKDRVNGFSCTCPSGFSGSTCQ
For orientation: Kd means the equilibrium constant for the complex coming apart. Higher therefore signals lower affinity. With B1, the dissociation constant (Kd) is 1.65 µM in experiment [1] and 0.0273 µM in experiment [2].

B2: wildtype (WT) human DLL4 (ligand)
chain: SGVFQLQLQEFINERGVLASGRPCEPGCRTFFRVCLKHFQAVVSPGPCTFGTVSTPVLGTNSFAVRDDSSGGGRNPLQLPFNFTWPGTFSLIIEAWHAPGDDLRPEALPPDALISKIAIQGSLAVGQNWLLDEQTSTLTRLRYSYRVICSDNYYGDNCSRLCKKRNDHFGHYVCQPDGNLSCLPGWTGEYCQQPICLSGCHEQNGYCSKPAECLCRPGWQGRLCNECIPHNGCRHGTCSTPWQCTCDEGWGGLFCDQDLNYCTHHSPCKNGATCSNSGQRSYTCTCRPGYTGVDCE
As for B2, the Kd in experiment [3] turned out to be 17.9 µM; in experiment [4] it was 22.2 µM; in experiment [5], 35.7 µM; in experiment [6], 4.04 µM; in experiment [7] it was 10.4 µM; in experiment [8], 4.99 µM.

B3: hNotch2 (EGF6-13) (receptor)
chain: LYVPCAPSPCVNGGTCRQTGDFTFECNCLPGFEGSTCERNIDDCPNHRCQNGGVCVDGVNTYNCRCPPQWTGQFCTEDVDECLLQPNACQNGGTCANRNGGYGCVCVNGWSGDDCSENIDDCAFASCTPGSTCIDRVASFSCMCPEGKAGLLCHLDDACISNPCHKGALCDTNPLNGQYICTCPQGYKGADCTEDVDECAMANSNPCEHAGKCVNTDGAFHCECLKGYAGPRCEMDINECHSDPCQNDATCLDKIGGFTCLCMPGFKGVHCELEINECQSNPCVNNGQCVDKVNRFQCLCPPGFTGPVCQ
As to B3, the Kd stood at 3.25 µM in experiment [1] and 0.0314 µM in experiment [2].

B4: hNotch1 (EGF6-13) (receptor)
chain: PYVPCSPSPCQNGGTCRPTGDVTHECACLPGFTGQNCEENIDDCPGNNCKNGGACVDGVNTYNCRCPPEWTGQYCTEDVDECQLMPNACQNGGTCHNTHGGYNCVCVNGWTGEDCSENIDDCASAACFHGATCHDRVASFYCECPHGRTGLLCHLNDACISNPCNEGSNCDTNPVNGKAICTCPSGYTGPACSQDVDECSLGANPCEHAGKCINTLGSFECQCLQGYTGPRCEIDVNECVSNPCQNDATCLDQIGEFQCICMPGYEGVHCEVNTDECASSPCLHNGRCLDKINEFQCECPTGFTGHLCQ
With B4, the Kd was determined as 0.471 µM in experiment [1] and 0.02 µM in experiment [2].
